Measured values reported in patent publication US20260317411 (published 2026).
Positions count from the first letter of the chain named. Each block holds one binder with its values, some of them ahead of it.

Target: T1, VEGF (UniProt P15692)
T1 chain: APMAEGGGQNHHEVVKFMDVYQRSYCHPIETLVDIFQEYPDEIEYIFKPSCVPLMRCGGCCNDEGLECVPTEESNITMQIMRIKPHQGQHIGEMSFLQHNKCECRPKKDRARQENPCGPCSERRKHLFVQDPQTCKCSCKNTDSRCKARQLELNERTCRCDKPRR
Assay: SPR

Kd: 0.0205 nM
B1: scFv1 (antibody)
chain: DIQLTQSPSSLSASVGDRVTITCSASQDISNYLNWYQQKPGKAPKVLIYFTSSLHSGVPSRFSGSGSGTDFTLTISSLQPEDEATYYCQQYSTVPWTFGQGTKVEIKGGGSGGGSGGGSGGGSGGGSEVQLVESGGGLVQPGGSLRLSCAASGYDFTHYGMNWVRQAPGKGLEWVGWINTYTGEPTYAADFKRRFTFSLDTSKSTAYLQMNSLRAEDTAVYYCAKYPYYYGTSHWYFDVWGQGTLVTVSS

Kd: 0.0236 nM
B2: scFv3 (antibody)
chain: B1 chain with S12M
